According to PMC3660561, “Crystal Structure of DmdD, a Crotonase Superfamily Enzyme That Catalyzes the Hydration and Hydrolysis of Methylthioacryloyl-CoA” (PLoS ONE, 2013):

How the values were obtained:
purified protein [1] = substrate: CC(O)CC(=O)SCCNC(=O)CCNC(=O)[C@H](O)C(C)(C)COP(=O)(O)OP(=O)(O)OC[C@H]1O[C@@H](n2cnc3c(N)ncnc32)[C@H](O)[C@@H]1OP(=O)(O)O; assay: purified protein; type: biochemical, Ruegeria pomeroyi; conditions: CoA ester hydrolysis, 100 mM HEPES pH 7.4
purified protein [2] = substrate: CSCCC(=O)SCCNC(=O)CCNC(=O)[C@H](O)C(C)(C)COP(=O)(O)OP(=O)(O)OC[C@H]1O[C@@H](n2cnc3c(N)ncnc32)[C@H](O)[C@@H]1OP(=O)(O)O; assay: purified protein; type: biochemical, Ruegeria pomeroyi; conditions: CoA ester hydrolysis, 100 mM HEPES pH 7.4
purified protein [3] = substrate: C/C=C/C(=O)SCCNC(=O)CCNC(=O)[C@H](O)C(C)(C)COP(=O)(O)OP(=O)(O)OC[C@H]1O[C@@H](n2cnc3c(N)ncnc32)[C@H](O)[C@@H]1OP(=O)(O)O; assay: purified protein; type: biochemical, Ruegeria pomeroyi; conditions: hydration, 100 mM HEPES pH 7.4
[4] = substrate: CS/C=C/C(=O)SCCNC(=O)CCNC(=O)[C@H](O)C(C)(C)COP(=O)(O)OP(=O)(O)OC[C@H]1O[C@@H](n2cnc3c(N)ncnc32)[C@H](O)[C@@H]1OP(=O)(O)O; assay: MeSH release by headspace gas chromatography; type: biochemical, Ruegeria pomeroyi; conditions: MeSH release (equivalent to hydration), 100 mM HEPES pH 7.4
Text: MeSH release by headspace gas chromatography on DmdD

[5] = biological target: the molecule itself; assay: crystal structure; wild-type DmdD free enzyme, 1.5 Å; space group P2(1)3, two monomers in the asymmetric unit, hexamer generated by the crystallographic 3-fold axis; crystals from 100 mM Tris pH 8.5, 25% PEG 3350, 200 mM NaCl, 20°C
[6] = biological target: the molecule itself; assay: crystal structure; E121A mutant crystals soaked 48 h with 10 mM MTA-CoA or MMPA-CoA, 1.8 Å; space group P2(1)3, two monomers in the asymmetric unit

B1: Ruegeria pomeroyi DmdD, wild type (enzyme)
chain: MTQDVTSGYSNLDLDLRDNGVCVVTLNRPDKRNALDVATIEELVTFFSTAHRKGVRAVVLTGAGDHFCAGLDLVEHWKADRSADDFMHVCLRWHEAFNKMEYGGVPIIAALRGAVVGGGLELASAAHLRVMDQSTYFALPEGQRGIFTGGGATIRVSDMIGKYRMIDMILTGRVYQGQEAADLGLAQYITEGSSFDKAMELADKIASNLPLTNFAICSAISHMQNMSGLDAAYAEAFVGGIVNTQPAARERLEAFANKTAARVRPNS
notes: DmdD (methylthioacryloyl-CoA hydratase) of Ruegeria pomeroyi, sub-cloned into pET26b; Hexamer (dimer of trimers); The C-terminal His-tag was not cleaved before crystallization; also called wild-type DmdD; free enzyme; not shown: His6, C-terminal, kept
Purified protein [1]
  Km: 119 ± 20 µM
  kcat: 13.2 ± 1.6 s⁻¹
Purified protein [2]
  Km: 69.0 ± 16.4 µM
  kcat: 0.9 ± 0.1 s⁻¹
Purified protein [3]
  Km: 19.0 ± 3.1 µM
  kcat: 42 ± 3 s⁻¹
[4]
  Km: 9.4 ± 2.1 µM
  kcat: 47 ± 3 s⁻¹
[5]
  stoichiometry N: 6

B2: Ruegeria pomeroyi DmdD E121A mutant (enzyme)
chain: MTQDVTSGYSNLDLDLRDNGVCVVTLNRPDKRNALDVATIEELVTFFSTAHRKGVRAVVLTGAGDHFCAGLDLVEHWKADRSADDFMHVCLRWHEAFNKMEYGGVPIIAALRGAVVGGGLALASAAHLRVMDQSTYFALPEGQRGIFTGGGATIRVSDMIGKYRMIDMILTGRVYQGQEAADLGLAQYITEGSSFDKAMELADKIASNLPLTNFAICSAISHMQNMSGLDAAYAEAFVGGIVNTQPAARERLEAFANKTAARVRPNS
notes: DmdD (methylthioacryloyl-CoA hydratase) of Ruegeria pomeroyi with the E121A mutation (QuikChange); crystals soaked with MTA-CoA or MMPA-CoA; PDB 4IZB is the wild-type parent; source: E. coli, purified following the same protocol as for the wild-type protein; not shown: His6, C-terminal, kept
[6]
  stoichiometry N: 6

B3: DmdD (Ruegeria pomeroyi DSS-3; E141A) (protein)
chain: MTQDVTSGYSNLDLDLRDNGVCVVTLNRPDKRNALDVATIEELVTFFSTAHRKGVRAVVLTGAGDHFCAGLDLVEHWKADRSADDFMHVCLRWHEAFNKMEYGGVPIIAALRGAVVGGGLELASAAHLRVMDQSTYFALPAGQRGIFTGGGATIRVSDMIGKYRMIDMILTGRVYQGQEAADLGLAQYITEGSSFDKAMELADKIASNLPLTNFAICSAISHMQNMSGLDAAYAEAFVGGIVNTQPAARERLEAFANKTAARVRPNS
notes: pET26b, C-terminal hexahistidine tag (not cleaved before crystallization), expressed in E. coli BL21(DE3) Star; homohexamer (dimer of trimers)
[4]
  Km: 63.3 ± 12.0 µM
  kcat: 0.0036 ± 0.0004 s⁻¹
